T1: human UBA7 (human, UniProt P41226 1-1012)
T1 sequence: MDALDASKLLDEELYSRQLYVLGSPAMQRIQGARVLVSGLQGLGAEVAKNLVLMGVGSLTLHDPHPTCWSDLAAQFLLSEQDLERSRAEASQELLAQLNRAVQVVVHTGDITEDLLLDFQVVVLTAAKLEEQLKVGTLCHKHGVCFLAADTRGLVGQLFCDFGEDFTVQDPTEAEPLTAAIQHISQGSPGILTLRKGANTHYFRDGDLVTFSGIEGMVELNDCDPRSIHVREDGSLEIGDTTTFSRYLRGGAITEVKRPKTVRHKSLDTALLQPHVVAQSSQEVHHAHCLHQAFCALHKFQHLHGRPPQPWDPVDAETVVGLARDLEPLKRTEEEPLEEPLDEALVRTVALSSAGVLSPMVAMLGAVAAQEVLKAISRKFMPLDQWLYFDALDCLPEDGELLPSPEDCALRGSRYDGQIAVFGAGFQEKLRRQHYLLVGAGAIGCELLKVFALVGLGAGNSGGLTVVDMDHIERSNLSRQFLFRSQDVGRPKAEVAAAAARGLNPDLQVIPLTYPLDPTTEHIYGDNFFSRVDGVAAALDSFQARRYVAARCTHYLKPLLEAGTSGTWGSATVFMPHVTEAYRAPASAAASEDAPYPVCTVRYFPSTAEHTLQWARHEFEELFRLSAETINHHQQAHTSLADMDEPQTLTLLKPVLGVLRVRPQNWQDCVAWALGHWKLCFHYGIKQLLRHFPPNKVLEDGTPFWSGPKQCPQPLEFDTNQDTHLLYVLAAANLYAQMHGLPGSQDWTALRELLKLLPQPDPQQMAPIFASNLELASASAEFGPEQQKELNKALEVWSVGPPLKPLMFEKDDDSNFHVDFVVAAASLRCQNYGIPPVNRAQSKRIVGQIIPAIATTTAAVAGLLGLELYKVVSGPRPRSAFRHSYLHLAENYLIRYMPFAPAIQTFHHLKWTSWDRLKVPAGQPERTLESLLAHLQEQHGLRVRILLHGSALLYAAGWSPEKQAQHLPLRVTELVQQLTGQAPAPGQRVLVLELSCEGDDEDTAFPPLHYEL

T2: mouse UBA7 (mouse, UniProt Q9DBK7 1-977)
T2 sequence (looked up): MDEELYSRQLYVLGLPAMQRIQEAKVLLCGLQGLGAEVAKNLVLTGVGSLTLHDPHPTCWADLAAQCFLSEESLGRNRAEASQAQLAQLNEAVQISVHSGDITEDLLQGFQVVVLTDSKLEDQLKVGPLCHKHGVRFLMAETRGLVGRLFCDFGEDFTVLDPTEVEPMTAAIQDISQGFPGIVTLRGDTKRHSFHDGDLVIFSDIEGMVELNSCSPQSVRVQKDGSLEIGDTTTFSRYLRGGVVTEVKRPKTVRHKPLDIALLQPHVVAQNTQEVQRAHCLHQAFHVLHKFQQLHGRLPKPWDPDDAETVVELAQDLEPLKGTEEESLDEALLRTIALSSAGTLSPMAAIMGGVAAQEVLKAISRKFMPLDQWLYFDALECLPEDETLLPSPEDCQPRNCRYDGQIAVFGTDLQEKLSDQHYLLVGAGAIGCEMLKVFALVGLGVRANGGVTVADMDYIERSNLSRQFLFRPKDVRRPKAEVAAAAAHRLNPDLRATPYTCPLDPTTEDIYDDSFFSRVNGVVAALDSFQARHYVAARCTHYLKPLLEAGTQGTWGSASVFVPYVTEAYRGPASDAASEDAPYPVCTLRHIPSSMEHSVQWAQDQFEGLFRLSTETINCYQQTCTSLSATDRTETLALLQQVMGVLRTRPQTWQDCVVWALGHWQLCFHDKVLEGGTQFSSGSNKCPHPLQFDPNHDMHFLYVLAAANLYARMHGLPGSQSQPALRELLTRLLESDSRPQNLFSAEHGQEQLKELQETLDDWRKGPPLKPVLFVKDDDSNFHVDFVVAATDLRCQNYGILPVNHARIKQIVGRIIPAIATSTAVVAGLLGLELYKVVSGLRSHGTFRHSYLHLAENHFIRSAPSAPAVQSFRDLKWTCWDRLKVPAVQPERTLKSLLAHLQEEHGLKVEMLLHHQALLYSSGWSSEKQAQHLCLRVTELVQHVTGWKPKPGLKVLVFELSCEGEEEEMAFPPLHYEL


Columns and labels:
[1] = biological target: T1, human UBA7; experiment: disulfide complex formation on non-reducing SDS-PAGE
[2] = biological target: T2, mouse UBA7; experiment: as above

Binder	binding result [1]	binding result [2]
human UBE2L6 (enzyme) not shown	binds	
mouse UBE2L6 (enzyme, UniProt Q9QZU9 1-153, looked up) MMASKRVAKELESLSKELPPYLRQLSSDDANVLVWHMLLLPDQLPYGLKAFQVRIDFPREYPFKPPTLRFTTKIYHPNVREDGLVCLPLISNENWKPYTKPYQVLEALNVLVSKPNLEEPVRLELADLLTQNPEMFRKKAEEFTLKFGVDRPS		binds
